Source: patent publication US20050100554A1 (published 2005)

T1: KRT8 (human, UniProt P05787 1-483)
T1 construct: also called cbe_4269571
T1 sequence: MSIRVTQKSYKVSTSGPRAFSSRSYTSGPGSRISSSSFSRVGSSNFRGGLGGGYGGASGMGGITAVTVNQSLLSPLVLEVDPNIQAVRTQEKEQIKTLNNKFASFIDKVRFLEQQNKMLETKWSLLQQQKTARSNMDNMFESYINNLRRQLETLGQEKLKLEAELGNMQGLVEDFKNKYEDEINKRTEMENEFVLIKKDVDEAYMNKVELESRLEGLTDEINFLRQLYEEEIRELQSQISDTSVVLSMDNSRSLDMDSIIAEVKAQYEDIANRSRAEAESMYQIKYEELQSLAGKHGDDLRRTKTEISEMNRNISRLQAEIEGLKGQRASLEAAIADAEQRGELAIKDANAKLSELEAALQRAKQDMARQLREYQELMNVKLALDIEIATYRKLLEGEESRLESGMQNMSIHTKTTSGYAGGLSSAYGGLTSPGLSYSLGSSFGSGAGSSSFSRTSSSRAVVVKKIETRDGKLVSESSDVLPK

T2: rho/rac guanine nucleotide exchange factor (GEF) 2 (human, UniProt Q92974 28-986)
T2 construct: also called ARHGEF2; cbe_3694420
T2 sequence: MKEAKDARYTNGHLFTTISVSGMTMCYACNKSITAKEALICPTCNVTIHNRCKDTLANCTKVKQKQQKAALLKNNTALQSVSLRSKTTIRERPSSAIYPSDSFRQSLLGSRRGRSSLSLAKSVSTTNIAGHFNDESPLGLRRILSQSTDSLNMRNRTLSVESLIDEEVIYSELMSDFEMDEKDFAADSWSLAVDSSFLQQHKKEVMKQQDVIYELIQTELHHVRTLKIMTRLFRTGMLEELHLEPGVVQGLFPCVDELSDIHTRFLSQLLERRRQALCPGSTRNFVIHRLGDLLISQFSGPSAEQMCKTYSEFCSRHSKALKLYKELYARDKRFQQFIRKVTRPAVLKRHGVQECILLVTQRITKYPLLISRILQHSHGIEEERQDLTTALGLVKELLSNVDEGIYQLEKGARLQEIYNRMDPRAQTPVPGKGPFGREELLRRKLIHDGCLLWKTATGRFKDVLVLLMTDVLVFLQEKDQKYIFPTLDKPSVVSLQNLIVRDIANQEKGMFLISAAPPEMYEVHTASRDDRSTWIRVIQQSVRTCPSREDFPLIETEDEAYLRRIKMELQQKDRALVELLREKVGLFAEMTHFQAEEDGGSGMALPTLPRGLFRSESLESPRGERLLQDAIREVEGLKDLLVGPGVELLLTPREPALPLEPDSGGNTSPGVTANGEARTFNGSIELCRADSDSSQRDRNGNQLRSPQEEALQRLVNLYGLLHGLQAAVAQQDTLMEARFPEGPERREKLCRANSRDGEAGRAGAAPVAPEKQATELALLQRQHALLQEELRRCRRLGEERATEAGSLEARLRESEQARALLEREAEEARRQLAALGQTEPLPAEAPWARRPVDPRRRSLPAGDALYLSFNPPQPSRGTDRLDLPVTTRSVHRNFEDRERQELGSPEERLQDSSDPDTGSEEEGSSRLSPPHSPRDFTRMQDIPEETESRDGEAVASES

T3: steroid receptor RNA activator 1 (human, UniProt Q9HD15 1-224)
T3 construct: also called SRA1; cbe_4344185
T3 sequence: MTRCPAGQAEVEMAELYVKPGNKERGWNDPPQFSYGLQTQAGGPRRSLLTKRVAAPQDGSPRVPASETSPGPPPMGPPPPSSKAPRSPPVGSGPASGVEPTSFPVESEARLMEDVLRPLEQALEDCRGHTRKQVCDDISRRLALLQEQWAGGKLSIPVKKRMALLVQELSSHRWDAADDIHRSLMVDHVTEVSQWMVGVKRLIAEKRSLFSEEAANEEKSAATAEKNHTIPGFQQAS

T4: SCO1 (human, UniProt O75880 68-301)
T4 construct: also called cbe_1699351
T4 sequence: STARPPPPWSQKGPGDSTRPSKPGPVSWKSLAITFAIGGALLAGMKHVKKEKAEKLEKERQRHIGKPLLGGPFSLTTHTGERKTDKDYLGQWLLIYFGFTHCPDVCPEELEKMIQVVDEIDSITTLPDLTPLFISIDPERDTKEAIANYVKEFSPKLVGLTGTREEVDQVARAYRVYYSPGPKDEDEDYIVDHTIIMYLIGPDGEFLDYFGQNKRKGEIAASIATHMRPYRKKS

B1: Human papillomavirus 11 E2 (other)
chain: MEAIAKRLDACQDQLLELYEENSIDIHKHIMHWKCIRLESVLLHKAKQMGLSHIGLQVVPPLTVSETKGHNAIEMQMHLESLAKTQYGVEPWTLQDTSYEMWLTPPKRCFKKQGNTVEVKFDGCEDNVMEYVVWTHIYLQDNDSWVKVTSSVDAKGIYYTCGQFKTYYVNFNKEAQKYGSTNHWEVCYGSTVICSPASVSSTVREVSIAEPTTYTPAQTTAPTVSACTTEDGVSAPPRKRARGPSTNNTLCVANIRSVDSTINNIVTDNYNKHQRRNNCHSAATPIVQLQGDSNCLKCFRYRLNDKYKHLFELASSTWHWASPEAPHKNAIVTLTYSSEEQRQQFLNSVKIPPTIRHKVGFMSLHLL
notes: also called HPV 11 E2; cbe_250781
B2: Human papillomavirus 11 E6 (other)
chain: MESKDASTSATSIDQLCKTFNLSLHTLQIQCVFCRNALTTAEIYAYAYKNLKVVWRDNFPFAACACCLELQGKINQYRHFNYAAYAPTVEEETNEDILKVLIRCYLCHKPLCEIEKLKHILGKARFIKLNNQWKGRCLHCWTTCMEDLLP
notes: also called HPV 11 E6; cbe_250808
B3: hypothetical gene supported by AL449243 (other)
chain: MASGAARWLVLAPVRSGALRSGPSLRKDGDVSAAWSGSGRSLVPSGSVIVTRSGAILPKPVKMSFGLLRVFSIVIPFLYVGTLISKNFAALLEEHDIFVPEDDDDDD
notes: also called Hs.306083; LOC91689
B4: Human papillomavirus 11 E4 (other)
chain: MVVPIIGKYVMAAQLYVLLHLYLALYEKYPLLNLLHTPPHRPPPLQCPPAPRKTACRRRLGSEHVDRPLTTPCVWPTSDPWTVQSTTSSLTITTSTKEGTTVTVQLRL
notes: also called HPV 11 E4; cbe_250777

How the values were obtained:
KRT8 = biological target: T1, KRT8; test: Y2H; INT ID 16
nucleoporin 214 kDa = biological target: T5, nucleoporin 214 kDa (human, UniProt P35658 2-2090); test: Y2H; INT ID 29
T5 construct: also called NUP214; cbe_3590661
T5 sequence (P35658 2-2090 limits assumed): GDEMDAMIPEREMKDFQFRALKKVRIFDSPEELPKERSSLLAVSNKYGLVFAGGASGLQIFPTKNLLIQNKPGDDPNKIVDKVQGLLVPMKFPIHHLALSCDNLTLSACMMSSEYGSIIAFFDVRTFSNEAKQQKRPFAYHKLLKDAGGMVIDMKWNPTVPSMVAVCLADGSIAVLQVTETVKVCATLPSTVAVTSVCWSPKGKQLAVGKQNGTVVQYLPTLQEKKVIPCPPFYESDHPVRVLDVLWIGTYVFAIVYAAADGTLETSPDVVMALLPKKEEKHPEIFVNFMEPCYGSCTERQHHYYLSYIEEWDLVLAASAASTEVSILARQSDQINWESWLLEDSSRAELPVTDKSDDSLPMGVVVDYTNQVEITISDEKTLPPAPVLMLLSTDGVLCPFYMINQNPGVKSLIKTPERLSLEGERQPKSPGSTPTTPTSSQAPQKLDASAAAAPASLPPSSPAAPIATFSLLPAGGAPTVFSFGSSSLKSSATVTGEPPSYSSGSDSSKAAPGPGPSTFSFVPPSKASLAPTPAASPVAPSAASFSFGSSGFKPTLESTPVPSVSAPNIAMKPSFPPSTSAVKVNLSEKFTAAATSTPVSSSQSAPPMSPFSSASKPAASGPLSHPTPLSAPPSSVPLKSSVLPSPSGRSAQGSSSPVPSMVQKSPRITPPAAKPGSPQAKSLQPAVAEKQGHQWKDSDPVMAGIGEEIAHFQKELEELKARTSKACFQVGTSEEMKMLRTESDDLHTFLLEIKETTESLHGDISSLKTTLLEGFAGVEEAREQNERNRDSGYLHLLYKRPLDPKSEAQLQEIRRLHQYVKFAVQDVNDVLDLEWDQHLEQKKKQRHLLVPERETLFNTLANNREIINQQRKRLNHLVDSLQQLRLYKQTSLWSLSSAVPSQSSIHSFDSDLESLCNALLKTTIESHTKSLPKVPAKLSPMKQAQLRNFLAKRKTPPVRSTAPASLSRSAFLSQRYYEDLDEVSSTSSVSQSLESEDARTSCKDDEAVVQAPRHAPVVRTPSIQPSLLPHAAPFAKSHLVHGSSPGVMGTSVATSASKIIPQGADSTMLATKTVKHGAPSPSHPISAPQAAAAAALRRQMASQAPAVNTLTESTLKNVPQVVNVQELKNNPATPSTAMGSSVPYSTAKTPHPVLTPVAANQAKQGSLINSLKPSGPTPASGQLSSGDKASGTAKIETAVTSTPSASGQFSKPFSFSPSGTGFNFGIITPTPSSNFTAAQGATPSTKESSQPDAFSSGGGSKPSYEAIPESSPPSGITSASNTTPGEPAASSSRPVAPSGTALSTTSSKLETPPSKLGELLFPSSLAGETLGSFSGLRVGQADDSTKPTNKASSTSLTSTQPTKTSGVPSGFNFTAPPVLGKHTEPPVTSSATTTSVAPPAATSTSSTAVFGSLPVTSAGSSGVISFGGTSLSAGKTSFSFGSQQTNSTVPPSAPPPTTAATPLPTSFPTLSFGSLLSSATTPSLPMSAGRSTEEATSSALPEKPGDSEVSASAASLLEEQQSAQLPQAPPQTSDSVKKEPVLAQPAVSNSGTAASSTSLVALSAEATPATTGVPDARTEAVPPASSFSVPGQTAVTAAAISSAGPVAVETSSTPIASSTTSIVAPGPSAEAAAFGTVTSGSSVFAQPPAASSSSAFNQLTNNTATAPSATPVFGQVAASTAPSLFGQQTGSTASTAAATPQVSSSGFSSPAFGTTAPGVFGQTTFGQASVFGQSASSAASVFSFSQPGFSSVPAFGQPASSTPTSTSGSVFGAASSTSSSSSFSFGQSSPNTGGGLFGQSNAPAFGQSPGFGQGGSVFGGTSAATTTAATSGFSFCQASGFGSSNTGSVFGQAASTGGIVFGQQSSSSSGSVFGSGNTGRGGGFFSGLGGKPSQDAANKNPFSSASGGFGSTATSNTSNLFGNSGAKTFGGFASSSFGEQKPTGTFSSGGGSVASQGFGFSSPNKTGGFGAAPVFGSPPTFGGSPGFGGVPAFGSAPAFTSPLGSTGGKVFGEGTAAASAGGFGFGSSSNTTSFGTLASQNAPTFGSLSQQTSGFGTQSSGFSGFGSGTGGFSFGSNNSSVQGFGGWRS

GPRK5 = biological target: T6, GPRK5 (human, UniProt P34947 1-590); test: Y2H; INT ID 27
T6 construct: also called cbe_2541164
T6 sequence (P34947 whole entry): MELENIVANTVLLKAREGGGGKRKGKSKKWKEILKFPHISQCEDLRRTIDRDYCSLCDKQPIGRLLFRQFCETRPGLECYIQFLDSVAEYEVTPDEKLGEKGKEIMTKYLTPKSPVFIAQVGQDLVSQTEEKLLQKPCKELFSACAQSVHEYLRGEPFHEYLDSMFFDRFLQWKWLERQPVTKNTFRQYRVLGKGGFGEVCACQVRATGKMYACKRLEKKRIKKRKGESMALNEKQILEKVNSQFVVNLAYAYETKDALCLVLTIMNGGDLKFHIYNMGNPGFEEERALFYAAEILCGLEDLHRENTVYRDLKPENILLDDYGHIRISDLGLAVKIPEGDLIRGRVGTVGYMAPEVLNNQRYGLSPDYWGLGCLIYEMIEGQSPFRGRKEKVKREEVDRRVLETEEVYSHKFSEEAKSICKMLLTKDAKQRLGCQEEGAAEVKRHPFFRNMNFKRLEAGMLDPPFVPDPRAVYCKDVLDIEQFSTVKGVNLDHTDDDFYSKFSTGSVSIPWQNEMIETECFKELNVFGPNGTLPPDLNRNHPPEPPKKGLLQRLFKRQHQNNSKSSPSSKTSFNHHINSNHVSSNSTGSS

[1] = biological target: T2, rho/rac guanine nucleotide exchange …; test: Y2H; INT ID 30
MAPK9 = biological target: T7, MAPK9 (human, UniProt P45984 1-424); test: Y2H; INT ID 32
T7 construct: also called cbe_4175362

CD164 = biological target: T8, CD164 (human, UniProt Q04900 24-197); test: Y2H; INT ID 31
T8 construct: also called cbe_3929669
T8 sequence (Q04900 24-197 limits assumed): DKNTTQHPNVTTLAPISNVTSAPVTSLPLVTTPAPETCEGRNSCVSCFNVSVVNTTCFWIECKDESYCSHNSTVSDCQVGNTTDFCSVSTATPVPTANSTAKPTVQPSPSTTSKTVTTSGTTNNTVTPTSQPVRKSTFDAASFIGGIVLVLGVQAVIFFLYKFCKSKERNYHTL

[2] = biological target: B1; test: Y2H; INT ID 14
[3] = biological target: T3, steroid receptor RNA activator 1; test: Y2H; INT ID 7
SCO1 = biological target: T4, SCO1; test: Y2H; INT ID 6
MT2A = biological target: T9, MT2A (human, UniProt P02795 1-61); test: Y2H; INT ID 5
T9 construct: also called cbe_862174
T9 sequence (P02795 whole entry): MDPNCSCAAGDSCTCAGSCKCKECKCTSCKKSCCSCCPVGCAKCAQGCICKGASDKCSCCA

Q: Does B1 bind (KRT8)?
A: binds

Q: Does B2 bind (nucleoporin 214 kDa)?
A: binds

Q: Does B2 bind (GPRK5)?
A: binds

Q: Does B2 bind [1]?
A: binds

Q: Does B2 bind (MAPK9)?
A: binds

Q: Does B2 bind (CD164)?
A: binds

Q: Does B3 bind [2]?
A: binds

Q: Does B4 bind [3]?
A: binds

Q: Does B4 bind (SCO1)?
A: binds

Q: Does B4 bind (MT2A)?
A: binds
